Assay results taken from patent publication US20120027677A1.
Read-outs that look alike come from different tables or passages of the source.

Key:
[1] = target: T1, PrP^Sc, pathogenic form of the human prion protein (from CJD brain homogenate) (human), P04156
[2] = target: T1, PrP^Sc, pathogenic form of the human …; remark: listed apart in the source
[3] = target: T1, PrP^Sc, pathogenic form of the human …; remark: listed apart in the source
[4] = target: T1, PrP^Sc, pathogenic form of the human …; remark: listed apart in the source

Question: How did the Mean (ELISA signal) [1] turn out when GGGKKRPKPGG (modifications not checked) [peptide of SEQ ID NO: 68] was run?
Answer: 138 RLU

Question: And the Exp. Mean (ELISA signal) [2]?
Answer: 418 RLU

Question: What about the Exp. Mean (as % of 68) [2] of the same binder?
Answer: 100%

Question: What about the Mean (% of 68) [3] of the same binder?
Answer: 100%

Question: What about the Mean (ELISA signal) [3] of the same binder?
Answer: 85 RLU

Question: What about the Exp. Mean (ELISA signal) [4] of the same binder?
Answer: 853 RLU

Question: What about the Exp. Mean (as % of 68) [4] of the same binder?
Answer: 100%
